According to patent publication US20260184748A1 (University of Pennsylvania, published 2026):
Where no end group is shown, it is not given here.

Assays:
Test in all cases: cell-based or functional assay
P2RY2 = P2RY2 (UniProt P41231 1-377)
PTGER2 = PTGER2 (UniProt P43116 1-358)
CRTH2 = molecular target: T1, CRTH2 (UniProt Q9Y5Y4 1-395)
T1 sequence (looked up): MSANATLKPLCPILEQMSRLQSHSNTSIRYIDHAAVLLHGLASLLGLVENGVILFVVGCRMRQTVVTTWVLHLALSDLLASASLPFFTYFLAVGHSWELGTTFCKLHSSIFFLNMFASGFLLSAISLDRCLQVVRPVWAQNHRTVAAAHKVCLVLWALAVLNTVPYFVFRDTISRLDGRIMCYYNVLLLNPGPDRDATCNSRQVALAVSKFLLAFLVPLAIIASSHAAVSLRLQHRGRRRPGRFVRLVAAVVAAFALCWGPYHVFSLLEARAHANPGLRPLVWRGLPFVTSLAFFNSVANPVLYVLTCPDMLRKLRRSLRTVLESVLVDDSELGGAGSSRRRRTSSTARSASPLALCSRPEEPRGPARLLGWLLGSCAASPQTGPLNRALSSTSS

LHCGR = LHCGR (UniProt P22888 27-699)
LHCGR, sequence (P22888 27-699 limits assumed): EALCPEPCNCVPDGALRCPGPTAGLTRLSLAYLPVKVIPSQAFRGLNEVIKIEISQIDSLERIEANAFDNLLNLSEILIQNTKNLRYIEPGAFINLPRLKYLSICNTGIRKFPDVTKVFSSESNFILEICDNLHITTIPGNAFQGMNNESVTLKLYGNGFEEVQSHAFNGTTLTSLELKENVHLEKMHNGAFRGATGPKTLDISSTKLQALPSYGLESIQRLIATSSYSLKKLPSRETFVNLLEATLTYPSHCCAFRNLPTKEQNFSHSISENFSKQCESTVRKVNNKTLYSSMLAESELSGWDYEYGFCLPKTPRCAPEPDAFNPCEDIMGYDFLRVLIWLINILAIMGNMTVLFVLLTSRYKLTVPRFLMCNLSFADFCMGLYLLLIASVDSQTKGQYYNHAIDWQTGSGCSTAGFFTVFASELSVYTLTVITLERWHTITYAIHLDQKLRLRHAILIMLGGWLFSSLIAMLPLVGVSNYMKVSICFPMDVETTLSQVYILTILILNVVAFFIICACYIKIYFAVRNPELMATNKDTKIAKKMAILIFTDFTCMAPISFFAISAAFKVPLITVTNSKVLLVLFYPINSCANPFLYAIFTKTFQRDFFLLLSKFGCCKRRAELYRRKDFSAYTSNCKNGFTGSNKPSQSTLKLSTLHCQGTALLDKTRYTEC

SSTR1 = SSTR1 (UniProt P30872 1-391)
SSTR1, sequence (P30872 whole entry): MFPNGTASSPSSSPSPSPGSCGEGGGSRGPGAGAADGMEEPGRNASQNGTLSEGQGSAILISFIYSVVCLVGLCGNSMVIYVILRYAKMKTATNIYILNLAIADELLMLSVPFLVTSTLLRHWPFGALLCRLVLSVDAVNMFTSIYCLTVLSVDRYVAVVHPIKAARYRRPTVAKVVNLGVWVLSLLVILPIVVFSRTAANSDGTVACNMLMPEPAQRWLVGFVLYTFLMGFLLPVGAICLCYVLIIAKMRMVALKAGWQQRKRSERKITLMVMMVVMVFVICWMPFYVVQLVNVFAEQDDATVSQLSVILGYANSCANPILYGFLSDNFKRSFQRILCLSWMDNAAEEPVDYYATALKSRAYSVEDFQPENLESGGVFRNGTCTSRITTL

TACR2 = molecular target: T2, TACR2 (UniProt P21452 1-398)
T2 sequence (looked up): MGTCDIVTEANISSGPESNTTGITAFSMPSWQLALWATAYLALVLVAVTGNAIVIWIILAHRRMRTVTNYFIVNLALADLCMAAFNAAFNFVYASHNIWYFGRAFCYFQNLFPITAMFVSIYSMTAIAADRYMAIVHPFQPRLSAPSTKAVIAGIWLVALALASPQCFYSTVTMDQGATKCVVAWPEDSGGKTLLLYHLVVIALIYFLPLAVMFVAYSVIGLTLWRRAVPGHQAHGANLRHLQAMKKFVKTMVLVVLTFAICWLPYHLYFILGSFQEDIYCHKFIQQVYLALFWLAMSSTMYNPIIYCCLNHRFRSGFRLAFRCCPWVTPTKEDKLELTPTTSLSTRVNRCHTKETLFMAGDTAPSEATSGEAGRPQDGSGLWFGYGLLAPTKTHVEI

FSHR = molecular target: T3, FSHR (UniProt P23945 18-695)
T3 sequence (looked up): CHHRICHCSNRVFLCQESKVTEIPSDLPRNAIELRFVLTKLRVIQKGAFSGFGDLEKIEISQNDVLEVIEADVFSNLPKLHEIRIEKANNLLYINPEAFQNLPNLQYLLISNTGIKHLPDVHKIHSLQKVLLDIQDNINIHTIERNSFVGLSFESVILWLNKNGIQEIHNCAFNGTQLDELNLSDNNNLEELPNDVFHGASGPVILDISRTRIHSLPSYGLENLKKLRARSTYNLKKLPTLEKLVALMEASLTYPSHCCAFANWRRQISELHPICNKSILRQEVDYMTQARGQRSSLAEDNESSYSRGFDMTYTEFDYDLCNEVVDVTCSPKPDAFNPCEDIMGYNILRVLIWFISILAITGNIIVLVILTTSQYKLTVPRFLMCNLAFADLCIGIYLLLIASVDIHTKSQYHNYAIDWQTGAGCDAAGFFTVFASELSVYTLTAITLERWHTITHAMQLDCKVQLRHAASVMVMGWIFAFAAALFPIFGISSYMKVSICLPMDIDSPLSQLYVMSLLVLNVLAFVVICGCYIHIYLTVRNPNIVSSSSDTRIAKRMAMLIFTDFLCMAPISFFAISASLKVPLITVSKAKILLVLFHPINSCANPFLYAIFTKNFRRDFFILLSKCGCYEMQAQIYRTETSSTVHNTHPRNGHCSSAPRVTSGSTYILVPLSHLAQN

HTR2C = molecular target: T4, HTR2C (UniProt P28335 33-458, limits assumed)
T4 sequence (looked up): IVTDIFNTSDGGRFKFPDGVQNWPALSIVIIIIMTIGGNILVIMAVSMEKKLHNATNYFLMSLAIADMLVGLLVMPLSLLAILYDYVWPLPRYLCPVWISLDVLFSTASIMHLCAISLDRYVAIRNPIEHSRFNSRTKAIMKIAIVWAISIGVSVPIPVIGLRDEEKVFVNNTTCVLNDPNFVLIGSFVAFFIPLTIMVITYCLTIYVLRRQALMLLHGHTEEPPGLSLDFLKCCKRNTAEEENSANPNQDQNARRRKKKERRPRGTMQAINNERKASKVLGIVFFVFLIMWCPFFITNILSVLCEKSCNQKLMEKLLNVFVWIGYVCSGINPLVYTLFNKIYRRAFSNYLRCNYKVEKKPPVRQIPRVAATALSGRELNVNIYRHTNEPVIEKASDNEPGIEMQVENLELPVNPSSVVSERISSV

CCR9 = molecular target: T5, CCR9 (UniProt P51686 1-369, limits assumed)
T5 sequence (looked up): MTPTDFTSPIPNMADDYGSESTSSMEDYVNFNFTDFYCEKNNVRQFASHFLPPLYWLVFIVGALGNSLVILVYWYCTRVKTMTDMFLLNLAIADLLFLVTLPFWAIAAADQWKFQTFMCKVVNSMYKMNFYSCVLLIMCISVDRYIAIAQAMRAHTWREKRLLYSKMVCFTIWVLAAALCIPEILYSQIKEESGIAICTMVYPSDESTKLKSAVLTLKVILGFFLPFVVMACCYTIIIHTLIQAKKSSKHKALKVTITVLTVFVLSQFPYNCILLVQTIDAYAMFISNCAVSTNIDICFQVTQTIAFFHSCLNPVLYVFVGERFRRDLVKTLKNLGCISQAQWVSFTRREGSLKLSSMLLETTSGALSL

PROKR1 = PROKR1 (UniProt Q8TCW9 1-393)
PROKR1, sequence (Q8TCW9 whole entry): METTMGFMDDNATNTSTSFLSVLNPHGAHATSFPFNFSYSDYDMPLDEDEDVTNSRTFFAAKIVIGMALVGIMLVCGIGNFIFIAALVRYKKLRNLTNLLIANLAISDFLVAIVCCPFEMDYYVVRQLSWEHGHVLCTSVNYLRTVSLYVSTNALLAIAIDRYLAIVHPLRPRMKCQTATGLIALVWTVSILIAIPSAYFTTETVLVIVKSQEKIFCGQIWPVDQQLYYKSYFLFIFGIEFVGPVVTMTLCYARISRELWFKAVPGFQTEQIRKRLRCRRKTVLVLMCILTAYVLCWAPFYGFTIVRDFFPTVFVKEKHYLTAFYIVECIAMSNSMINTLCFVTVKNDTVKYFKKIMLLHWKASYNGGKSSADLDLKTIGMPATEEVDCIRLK

EDG3 = EDG3 (UniProt Q99500 1-378)
EDG3, sequence (Q99500 whole entry): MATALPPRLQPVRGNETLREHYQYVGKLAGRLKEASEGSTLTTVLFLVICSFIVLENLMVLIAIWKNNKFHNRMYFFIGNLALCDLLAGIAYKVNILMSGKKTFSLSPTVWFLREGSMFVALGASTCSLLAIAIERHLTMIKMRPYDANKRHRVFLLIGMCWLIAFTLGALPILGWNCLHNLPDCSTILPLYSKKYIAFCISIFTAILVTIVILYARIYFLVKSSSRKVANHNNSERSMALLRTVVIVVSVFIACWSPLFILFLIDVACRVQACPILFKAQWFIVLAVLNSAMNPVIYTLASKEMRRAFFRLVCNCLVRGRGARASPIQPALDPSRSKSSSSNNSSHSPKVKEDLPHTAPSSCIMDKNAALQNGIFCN

CALCRL-RAMP2 = CALCRL-RAMP2 (UniProt Q16602 23-461; O60895 43-175)
CALCRL-RAMP2, sequence (Q16602 23-461 limits assumed, chain 1 of 2): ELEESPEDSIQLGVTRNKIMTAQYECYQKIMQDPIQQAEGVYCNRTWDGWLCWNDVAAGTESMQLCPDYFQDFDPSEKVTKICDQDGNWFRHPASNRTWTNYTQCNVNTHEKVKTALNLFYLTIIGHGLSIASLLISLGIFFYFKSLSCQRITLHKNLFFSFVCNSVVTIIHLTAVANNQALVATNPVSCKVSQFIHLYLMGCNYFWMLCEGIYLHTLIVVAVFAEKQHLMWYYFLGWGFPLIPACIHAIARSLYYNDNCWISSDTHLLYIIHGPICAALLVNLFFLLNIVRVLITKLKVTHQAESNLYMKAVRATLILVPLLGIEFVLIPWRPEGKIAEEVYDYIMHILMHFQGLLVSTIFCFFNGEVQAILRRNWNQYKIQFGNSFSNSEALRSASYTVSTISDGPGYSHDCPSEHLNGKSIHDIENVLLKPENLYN
CALCRL-RAMP2, sequence (O60895 43-175 limits assumed, chain 2 of 2): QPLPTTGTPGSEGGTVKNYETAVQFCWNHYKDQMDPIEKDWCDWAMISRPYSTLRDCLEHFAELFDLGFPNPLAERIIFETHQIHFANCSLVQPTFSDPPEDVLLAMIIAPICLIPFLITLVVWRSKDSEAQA

CALCR-RAMP2 = CALCR-RAMP2 (UniProt P30988 25-474; O60895 43-175, limits assumed)
CALCR-RAMP2, sequence (P30988 25-474 limits assumed, chain 1 of 2): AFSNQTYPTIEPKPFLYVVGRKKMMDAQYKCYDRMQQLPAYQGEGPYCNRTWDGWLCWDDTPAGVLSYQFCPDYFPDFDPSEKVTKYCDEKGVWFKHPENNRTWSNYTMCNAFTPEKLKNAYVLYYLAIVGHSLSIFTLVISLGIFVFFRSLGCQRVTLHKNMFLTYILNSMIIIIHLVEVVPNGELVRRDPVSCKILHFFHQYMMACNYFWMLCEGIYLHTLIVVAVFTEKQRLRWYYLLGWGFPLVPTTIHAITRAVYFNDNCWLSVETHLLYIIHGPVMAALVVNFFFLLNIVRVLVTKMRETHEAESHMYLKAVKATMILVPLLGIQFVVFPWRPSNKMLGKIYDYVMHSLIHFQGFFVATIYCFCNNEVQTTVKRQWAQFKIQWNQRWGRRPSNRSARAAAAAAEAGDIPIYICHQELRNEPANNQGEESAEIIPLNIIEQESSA
CALCR-RAMP2, sequence (O60895 43-175 limits assumed, chain 2 of 2): as the sequence (O60895 43-175 limits assumed, chain 2 of 2) above

P2RY2, sequence (P41231 whole entry): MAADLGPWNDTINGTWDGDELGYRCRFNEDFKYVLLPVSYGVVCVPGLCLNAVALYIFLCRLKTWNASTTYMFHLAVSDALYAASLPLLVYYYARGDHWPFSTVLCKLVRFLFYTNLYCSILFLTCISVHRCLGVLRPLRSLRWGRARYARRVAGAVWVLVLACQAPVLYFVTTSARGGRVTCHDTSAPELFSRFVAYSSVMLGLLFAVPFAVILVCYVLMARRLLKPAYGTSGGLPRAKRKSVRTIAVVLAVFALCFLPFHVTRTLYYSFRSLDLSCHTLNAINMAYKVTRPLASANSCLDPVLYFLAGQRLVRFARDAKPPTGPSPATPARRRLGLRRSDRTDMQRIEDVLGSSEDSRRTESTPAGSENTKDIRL
PTGER2, sequence (P43116 whole entry): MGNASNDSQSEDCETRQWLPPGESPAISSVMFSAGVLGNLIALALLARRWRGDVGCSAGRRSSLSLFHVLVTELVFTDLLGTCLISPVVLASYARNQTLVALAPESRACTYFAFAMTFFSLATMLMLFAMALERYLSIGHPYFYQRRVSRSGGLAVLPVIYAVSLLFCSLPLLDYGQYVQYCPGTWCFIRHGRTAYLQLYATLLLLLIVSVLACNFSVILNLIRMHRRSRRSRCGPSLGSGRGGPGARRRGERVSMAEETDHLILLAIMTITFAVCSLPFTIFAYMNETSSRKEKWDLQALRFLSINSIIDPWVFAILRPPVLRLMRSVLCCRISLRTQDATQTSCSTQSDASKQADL

QATVGDVNTDRPGLLDLK (also: synthesised on Rink amide resin, C-terminal amide not given here outright) [octadecaneuropeptide (ODN)]
% Activity, arrestin, antagonist mode, 2.5 uM (P2RY2): -5.2% | % Activity, arrestin, antagonist mode, 2.5 uM (PTGER2): 2.1% | % Activity, arrestin, antagonist mode, 2.5 uM (CRTH2): 0.6% | % Activity, arrestin, antagonist mode, 2.5 uM (LHCGR): 7.2% | % Activity, arrestin, antagonist mode, 2.5 uM (SSTR1): -1.6% | % Activity, arrestin, antagonist mode, 2.5 uM (TACR2): 8.3% | % Activity, arrestin, antagonist mode, 2.5 uM (FSHR): -16.9% | % Activity, arrestin, antagonist mode, 2.5 uM (HTR2C): 2.2% | % Activity, arrestin, antagonist mode, 2.5 uM (CCR9): -10.1% | % Activity, arrestin, antagonist mode, 2.5 uM (PROKR1): -12.4% | % Activity, arrestin, antagonist mode, 2.5 uM (EDG3): 15.4% | % Activity, arrestin, antagonist mode, 2.5 uM (CALCRL-RAMP2): -11.6% | % Activity, arrestin, antagonist mode, 2.5 uM (CALCR-RAMP2): -17.8%
